The values below come from patent US20170260575A1.

The assay deals with integrin receptors on NIH/3T3 fibroblast cells. Nature of the assay: cell-based or functional assay.

[ ]: non-standard residue; d: D form.

As to cyclo(RGD[dF]K) (also: biotin-labelled (cRGDfK-biotin), bound via streptavidin) [cyclic Arg-Gly-Asp-d-Phe-Lys (cRGDfK) peptide], the decrease in Cy3B fluorescence under individual cells, Ttol=12 pN duplexes stood at 13.7%; the decrease in Cy3B fluorescence under individual cells, Ttol=56 pN duplex was 6.5%; the fold decrease in MCR signal of controls (duplexes lacking cRGDfK, scrambled duplexes) against the 12 pN cRGDfK surface was determined as 150 fold.
